# Assay results as given in US6322962A, “Sterol-regulated Site-1 protease and assays of modulators thereof” (Board of Regents, The University of Texas System, priority 1999, dated 2001).
# Where a chain is given by its changes, count along the chain named. In names and notes the source's numbering stands. Entries after “also recorded” stand apart in the source; their conditions may differ. Peptide text beside a SMILES is read from it. * marks the point of attachment. AMC = Cc1cc(=O)oc2cc(N*)ccc12
# T1: purified S1P(983)-C (Cricetulus griseus, UniProt Q9Z2A8, T875N)
# T1 construct: Truncated S1P (amino acids 1-983); GGR linker (NotI site); made in house; host or cells: SRD-12B cells (mutant CHO cells lacking S1P) stably transfected with pCMV-S1P(983)-Myc-His (TR-3117, 'S1P(983) cells'); secreted into the medium and purified on Ni-NTA
# T1 sequence (Q9Z2A8 187-983 T875N): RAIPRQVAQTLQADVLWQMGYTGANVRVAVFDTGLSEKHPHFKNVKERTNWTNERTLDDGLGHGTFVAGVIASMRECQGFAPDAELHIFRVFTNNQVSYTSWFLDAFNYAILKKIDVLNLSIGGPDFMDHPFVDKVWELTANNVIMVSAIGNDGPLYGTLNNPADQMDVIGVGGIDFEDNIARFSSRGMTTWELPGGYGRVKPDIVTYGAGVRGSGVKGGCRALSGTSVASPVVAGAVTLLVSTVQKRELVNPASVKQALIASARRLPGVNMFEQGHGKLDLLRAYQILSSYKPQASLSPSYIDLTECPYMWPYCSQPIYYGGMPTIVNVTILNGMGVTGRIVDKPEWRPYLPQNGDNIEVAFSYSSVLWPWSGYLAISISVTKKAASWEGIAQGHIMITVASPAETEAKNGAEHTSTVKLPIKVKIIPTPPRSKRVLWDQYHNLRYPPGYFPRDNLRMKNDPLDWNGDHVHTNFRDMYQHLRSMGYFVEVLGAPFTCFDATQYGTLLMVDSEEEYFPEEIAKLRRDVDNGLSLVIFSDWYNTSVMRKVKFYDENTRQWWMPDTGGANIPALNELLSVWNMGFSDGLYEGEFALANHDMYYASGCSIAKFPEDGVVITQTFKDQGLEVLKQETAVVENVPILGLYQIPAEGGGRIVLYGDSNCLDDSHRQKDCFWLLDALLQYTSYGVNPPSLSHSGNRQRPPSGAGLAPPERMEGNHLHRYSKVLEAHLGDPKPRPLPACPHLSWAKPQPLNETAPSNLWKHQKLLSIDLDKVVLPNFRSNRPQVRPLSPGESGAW
# B1: Myc-S1P(Site-B mutant) (enzyme)
# chain: DGGRSEQKLISEEDLNGEQKLISEEDLNGEQKLISEEDLNSSGRLGKKAFEKASCPSCSHLTLKVEFSSTVVEYEYIVAFNGYFTAKARNSFISSALKSSEVDNWRIIPRNNPSSDYPSDFEVIQIKEKQKAGLLTLEDHPNIKRVTPQRKVFAAAAFAESDPIVPCNETRWSQKWQSSRPLRRASLSLGSGFWHATGRHSSRRLLRAIPRQVAQTLQADVLWQMGYTGANVRVAVFDTGLSEKHPHFKNVKERTNWTNERTLDDGLGHGTFVAGVIASMRECQGFAPDAELHIFRVFTNNQVSYTSWFLDAFNYAILKKIDVLNLSIGGPDFMDHPFVDKVWELTANNVIMVSAIGNDGPLYGTLNNPADQMDVIGVGGIDFEDNIARFSSRGMTTWELPGGYGRVKPDIVTYGAGVRGSGVKGGCRALSGTSVASPVVAGAVTLLVSTVQKRELVNPASVKQALIASARRLPGVNMFEQGHGKLDLLRAYQILSSYKPQASLSPSYIDLTECPYMWPYCSQPIYYGGMPTIVNVTILNGMGVTGRIVDKPEWRPYLPQNGDNIEVAFSYSSVLWPWSGYLAISISVTKKAASWEGIAQGHIMITVASPAETEAKNGAEHTSTVKLPIKVKIIPTPPRSKRVLWDQYHNLRYPPGYFPRDNLRMKNDPLDWNGDHVHTNFRDMYQHLRSMGYFVEVLGAPFTCFDATQYGTLLMVDSEEEYFPEEIAKLRRDVDNGLSLVIFSDWYNTSVMRKVKFYDENTRQWWMPDTGGANIPALNELLSVWNMGFSDGLYEGEFALANHDMYYASGCSIAKFPEDGVVITQTFKDQGLEVLKQETAVVENVPILGLYQIPAEGGGRIVLYGDSNCLDDSHRQKDCFWLLDALLQYTSYGVNPPSLSHSGNRQRPPSGAGLAPPERMEGNHLHRYSKVLEAHLGDPKPRPLPACPHLSWAKPQPLNETAPSNLWKHQKLLSIDLDKVVLPNFRSNRPQVRPLSPGESGAWDIPGGIMPGRYNQEVGQTIPVFAFLGAMVALAFFVVQISKAKSRPKRRRPRAKRPQLTQQTHPPRTPSV
# B2: wild-type S1P: hamster Site-1 protease expressed from cDNA (protein, UniProt Q9Z2A8 187-1052, looked up)
# Membrane-bound transcription …: RAIPRQVAQTLQADVLWQMGYTGANVRVAVFDTGLSEKHPHFKNVKERTNWTNERTLDDGLGHGTFVAGVIASMRECQGFAPDAELHIFRVFTNNQVSYTSWFLDAFNYAILKKIDVLNLSIGGPDFMDHPFVDKVWELTANNVIMVSAIGNDGPLYGTLNNPADQMDVIGVGGIDFEDNIARFSSRGMTTWELPGGYGRVKPDIVTYGAGVRGSGVKGGCRALSGTSVASPVVAGAVTLLVSTVQKRELVNPASVKQALIASARRLPGVNMFEQGHGKLDLLRAYQILSSYKPQASLSPSYIDLTECPYMWPYCSQPIYYGGMPTIVNVTILNGMGVTGRIVDKPEWRPYLPQNGDNIEVAFSYSSVLWPWSGYLAISISVTKKAASWEGIAQGHIMITVASPAETEAKNGAEHTSTVKLPIKVKIIPTPPRSKRVLWDQYHNLRYPPGYFPRDNLRMKNDPLDWNGDHVHTNFRDMYQHLRSMGYFVEVLGAPFTCFDATQYGTLLMVDSEEEYFPEEIAKLRRDVDNGLSLVIFSDWYNTSVMRKVKFYDENTRQWWMPDTGGANIPALNELLSVWNMGFSDGLYEGEFALANHDMYYASGCSIAKFPEDGVVITQTFKDQGLEVLKQETAVVENVPILGLYQIPAEGGGRIVLYGDSNCLDDSHRQKDCFWLLDALLQYTSYGVTPPSLSHSGNRQRPPSGAGLAPPERMEGNHLHRYSKVLEAHLGDPKPRPLPACPHLSWAKPQPLNETAPSNLWKHQKLLSIDLDKVVLPNFRSNRPQVRPLSPGESGAWDIPGGIMPGRYNQEVGQTIPVFAFLGAMVALAFFVVQISKAKSRPKRRRPRAKRPQLTQQTHPPRTPSV
# B3: 5411A: control S1P mutant, serine near catalytic triad mutated to alanine (protein, UniProt Q9Z2A8 187-1052, looked up, variant S411A)
# Membrane-bound transcription …: B2 Membrane-bound transcription … with S225A
# Legend:
# [1] = system: SKI-1; conditions: Seidah et al., 1999, preliminary data; cited from earlier work
# [2] = biological target: T1, purified S1P(983)-C; assay: Fluorogenic peptide assay for S1P activity (cleavage of MCA-conjugated peptides); format: biochemical, hamster
# Description: Fluorogenic Peptide Assay for S1P Activity
# S1P activity was measured fluorometrically with MCA-conjugated peptidyl substrates. Each reaction was carried out in 0.2 ml of assay buffer (25 mM Tris, 25 mM Mes, 25 mM acetic acid, and 1 mM CaCl2 adjusted to pH 8.0 with concentrated NaOH). Reactions contained MCA-peptide (final concentration 100 μM, added in 2 μl DMSO) and […] of purified S1P(983)-C. After incubation for 0.5-5 h at 37° C., each reaction was terminated by addition of 1 ml of ice-cold 5 mM sodium EDTA. The liberated 7-amino-4-methyl-coumarin (AMC) was measured with a Perkin-ElmerLS-30 luminescence spectrometer (360 nm excitation, 460 nm emission). A standard curve of fluorescence intensity was generated with different concentrations of AMC (Promega).
# Similar substrates have been used to assay furin, prohormone convertases, and other subtilisin-related enzymes (Nakayama, 1997). […] The sequence of this peptide corresponds to the sequence at Site-B of S1P, which is known to be cleaved by S1P in an autocatalytic reaction. Fluorescence rose linearly with time for 5 h. […] This differs from the observations with furin and the prohormone convertases, whose pH optima are generally in the range of 6-7 (Nakayama, 1997).
# The indicated fluorogenic peptide-MCA (100 μM) was incubated with 3 μg of purified S1P(983)-C at 37° C. for 5 h. The S1P activity of Ac-VFRSLK-MCA (SEQ ID NO:13, 930 pmol per min/mg protein) was set at 1.0, and the activity of the other substrates was expressed relative to this value. Each value represents the average of duplicate incubations, which varied from each other by <10%.
# [3] = biological target: HSV-tagged human SREBP-2, wild-type (human) (UniProt Q12772)
# [4] = system: PLAP-BP2(513-1141) in SRD-12B cells; assay: Secreted alkaline phosphatase assay in SRD-12B cells transfected with wild-type or mutant S1P cDNAs; format: cell-based, hamster; conditions: Myc-tagged S1P cDNA
# [5] = system: SREBP-2; assay: Immunoblot of cleavage of HSV-tagged SREBP-2 in transfected SRD-12B cells; format: cell-based, hamster; conditions: SRD-12B cells, HSV-tagged SREBP-2
# Description: On day 0, SRD-12B cells were set up at a density of 6×10^5 cells/60-mm dish in medium B. On day 1, cells were transfected with 4 μg of the indicated plasmid DNA plus 12 μl of LipofectAMINE™ reagent (Life Technologies) according to the manufacturer's instructions with modifications as follows. LipofectAMINE™/DNA complexes were formed in 1 ml of serum-free medium for 15 min at room temperature, and 0.5 ml were added to 1 ml of serum-free medium per dish. […] After incubation at 37 ° C. for 20 h, the cells received N-acetyl-leucinal-leucinal norleucinal (ALLN) at a final concentration of 25 μg/ml. […] After boiling for 5 min, the proteins were subjected to SDS-PAGE and transferred to Hybond-C Extra nitrocellulose filters (Amersham). The filters were incubated with the antibodies described in the figure legends. […] Gels were calibrated with prestained molecular weight markers (New England Biolabs, Beverly, Mass.). Filters were exposed to X-Omat Blue XB-1 film (Kodak, Rochester, N.Y.) with intensifying screens at room temperature for the indicated time.
# Cell membranes and nuclear extracts were subjected to electrophoresis and blotted with an antibody against the HSV epitope-tag.
# In a more direct test for S1P catalytic activity, the mutant plasmids were transfected into the SRD-12B cells together with pTK-HSV-BP2. Membranes and nuclear extracts were subjected to SDS-PAGE and blotted with an antibody against the HSV-tagged SREBP-2 (FIG. 9B).
# The inventors cotransfected cDNAs encoding wild-type S1P or one of the mutants. Cell membrane pellets and nuclear extracts were subjected to SDS-PAGE. and the NH2 -terminus of SREBP-2 was visualized by immunoblotting with anti-HSV (FIG. 16A).
molecule,measurement,setting,value
"CC(=O)N[C@@H](CCCNC(=N)N)C(=O)N[C@@H](CO)C(=O)N[C@H](C(=O)N[C@@H](CC(C)C)C(=O)Nc1ccc2c(C)cc(=O)oc2c1)C(C)C [Ac-RSVL-MCA, Ac-Arg-Ser-Val-Leu-MCA] (Ac-RSVL-{AMC})",cleavage by SKI-1 culture medium,[1],unable to cleave
same,Relative Activity,"[2]; 100 μM peptide-MCA, 3 μg S1P(983)-C, 37° C., 5 h, Ac-VFRSLK-MCA set at 1.0",< 0.1
same,cleavage of the peptide,[2]; result in words,did not cleave; also recorded: does not cleave
27-amino acid synthetic peptide: 27-amino acid synthetic peptide corresponding to the luminal loop sequence of human SREBP-2 (GGAHDSDQHPHSGSGRSVLSFESGSGG),cleavage by SKI-1 culture medium,[1],able to cleave
B1,cleaved nuclear form of HSV-tagged SREBP-2 on immunoblot (SRD-12B cells) (fold higher levels of expression),[3],10
B2,PLAP activity in the culture medium,[4],increased
same,cleavage of SREBP-2 by S1P or S1P mutant,[5],maximal cleavage
same,cleavage of SREBP-2 by S1P or S1P mutant,[5]; listed as Wild-type S1P,restored cleavage
B3,PLAP activity relative to wild-type levels,[4],50-70 % of wild-type levels
